In US9187762B2, “Compositions and methods comprising sequences having hydroxyphenylpyruvate dioxygenase (HPPD) activity” (PIONEER HI-BRED INTERNATIONAL, INC., priority 2010, dated 2015):

What was measured:
soybean HPPD = experiment: HPPD activity, coupled assay with HGD; substrate saturation kinetics (KM, kcat); type: biochemical; conditions: soy HPPD, wt and improved
From the text: HPPD catalyzes the conversion of 4-hydroxyphenylpyruvate (HPP) to homogentisate. See, FIG. 1. […] However, the product of the ensuing reaction in tyrosine metabolism, maleylacetoacetate, absorbs strongly at 320 nm. Furthermore, the enzyme catalyzing that reaction is also a dioxygenase having similar mechanism and buffer requirements as HPPD, making homogentisate dioxygenase (HGD) an ideal partner in a coupled assay, as shown.
The HDG gene from Pseudomonas aeruginosa (Amaya (2004) Arch Biochem Biophys 421, 135-142) was cloned into pVER7062 and electroporated into E. coli strain BL21(DE3). The enzyme was produced by methods similar to those described for HPPD. The purified enzyme has a KM for homogentisate of 23 uM and a kcat of 100/sec, properties highly suited for instantly converting the homogentisate produced by HPPD to maleylacetoacetate.
(§1) HPPD activity was measured by placing an aliquot (e.g., 6 ul) of the substrate HPP at 50-fold the desired final concentration into the wells of a low UV-absorbing assay plate. Reactions were started by adding a mixture (e.g., 294 ul) containing 25 mM Hepes, pH 7, 2 mM ascorbate, 10 uM FeSO4, 1 to 100 uM HPP, 50 nM HGD and 5 to 240 nM HPPD. Absorbance at 320 nm was monitored continuously in a plate-reading spectrophotometer (Spectramax, Molecular Devices).
(§2) The catalytic performance of wild-type HPPD and variants generated by shuffling was assessed by determining the substrate saturation parameters. The Michaelis-Menten kinetics protocol of the Spectramax software was customized for HPP concentrations ranging from 3.33 uM to 100 uM, or up to 1 mM if required. Reaction rates were measured as described above for each concentration of HPP. The software returns values of KM and Vmax using the Lineweaver-Burke transformation of the Michaelis-Menten equation.
(§3) The amino acid substitutions identified during the shuffling and mutagenesis of the maize HPPD gene can be made at analogous positions in other HPPD proteins to improve their insensitivity toward HPPD-inhibiting herbicides. The sequences of native and improved maize HPPD were aligned with those of sorghum (Genbank accession number XP002453359) and soybean (Genbank accession number ABQ96868), and the motif substitutions were designed accordingly, as shown in FIG. 14. The genes designed for improvement were synthesized commercially, inserted into vector pVER7062 and expressed, purified and evaluated as in Example 1.

G. max HPPD = experiment: ON/OFF rate ratio insensitivity parameters of HPPD with maize motif substitutions; type: biochemical, Glycine max; conditions: for OFF ratio / ON ratio / ON × OFF Value / ON × OFF Fold vs wt: soy HPPD
Protocol: (§4) [formula] Higher KD (reduced affinity or increased insensitivity) can be attained with a numerically smaller ON rate, a larger OFF rate or both. […] The ratio of the reaction rate with inhibitor to that without inhibitor during the 70 to 90 second interval of the reaction was termed the “ON rate ratio”. […] Incubations with the same concentrations of enzyme but no mesotrione were done in parallel. After 1 hr at room temperature, 5 to 10 ul of the enzyme-inhibitor complex was dispensed into the wells of the assay plate. Reactions were started with the addition of 290 to 295 ul of 25 mM Hepes, pH 7, 2 mM ascorbate, 10 uM FeSO4, 100 uM HPP and 50 nM HGD. The reactions were monitored at 320 nm for 12 min. Reaction velocity accelerates as inhibitor is released from the enzyme until a steady state is reached, during which the reaction velocity is constant. The ratio of the steady state rate in mixtures containing mesotrione (or other herbicidal inhibitor) to the initial velocity of mixtures lacking inhibitor is termed the “OFF rate ratio”. Another parameter to record is the time span required for the reactions with inhibitor to reach the steady state. […] It is not certain that the steady state attained in the OFF rate reactions actually represents an equilibrium where OFF rates are now equal to ON rates. Because substrate and inhibitors bind in the same site, the high concentration of substrate present may competitively trap the inhibitor and prevent it from binding again. To be sure that improvement in ON rates is being taken into account, the ON and OFF rate ratios were multiplied together and the product is termed the “insensitivity parameter”.

S. bicolor HPPD [1] = experiment: as above; type: biochemical, Sorghum bicolor; conditions: sorghum HPPD
Protocol: as §4

S. bicolor HPPD [2] = experiment: HPPD activity, coupled assay with HGD; substrate saturation kinetics; type: biochemical, Sorghum bicolor; conditions: sorghum HPPD, wt and improved
Protocol: as §1, §2, §3

Molecule | Km (soybean HPPD) [µM] | kcat (soybean HPPD) | OFF ratio (G. max HPPD; Mesotrione) | ON ratio (G. max HPPD; Mesotrione) | ON × OFF Value (G. max HPPD; Mesotrione) | OFF ratio (G. max HPPD; Tembotrione) | ON ratio (G. max HPPD; Tembotrione) | ON × OFF Value (G. max HPPD; Tembotrione) | OFF ratio (S. bicolor HPPD [1]; Mesotrione) | ON ratio (S. bicolor HPPD [1]; Mesotrione) | ON × OFF Value (S. bicolor HPPD [1]; Mesotrione) | OFF ratio (S. bicolor HPPD [1]; Tembotrione) | ON ratio (S. bicolor HPPD [1]; Tembotrione) | ON × OFF Value (S. bicolor HPPD [1]; Tembotrione) | Km (S. bicolor HPPD [2]) [µM] | kcat (S. bicolor HPPD [2]) | further results
SEQ ID NO: 2 (protein, Glycine max) MAIPMCNEIQAQAQAQAQAQPGFKLVGFKNFVRTNPKSDRFQVNRFHHIEFWCTDATNASRRFSWGLGMPIVAKSDLSTGNQIHASYLLRSGDLSFLFSAPYSPSLSAGSSAASSASIPSFDAATCLAFAAKHGFGVRAIALEVADAEAAFSASVAKGAEPASPPVLVDDRTGFAEVRLYGDVVLRYVSYKDAAPQAPHADPSRWFLPGFEAAASSSSFPELDYGIRRLDHAVGNVPELAPAVRYLKGFSGFHEFAEFTAEDVGTSESGLNSVVLANNSETVLLPLNEPVYGTKRKSQIETYLEHNEGAGVQHLALVTHDIFTTLREMRKRSFLGGFEFMPSPPPTYYANLHNRAADVLTVDQIKQCEELGILVDRDDQGTLLQIFTKPVGDRPTIFIEIIQRIGCMVEDEEGKVYQKGACGGFGKGNFSELFKSIEEYEKTLEAKRTA | 2 | 83 | 0.135 | 0.299 | 0.040 | 0.044 | 0.102 | 0.0044 |  |  |  |  |  |  |  |  | 
GE010082: Glycine max variant HPPD with maize motif substitutions, SEQ ID NO: 458 (protein, HPPD variant) MPIPMCNEIQAQAQAQAQAQPGFKLVGFKNFVRTNPKSDRFQVNRFHHIEFWCTDATNASRRFSWGLGMPIVAKSDLSTGNQIHASYLLRSGDLSFLFSAPYSPSLSAGSSAASSASIPSFDAATCLAFAAKHGFGVRAIALEVADAEAAFSASVAKGAEPASPPVLVDDRTGFAEVRLYGDVVLRYVSYKDAAPQAPHADPSRWFLPGFEAAASSSSFPELDYGIRRLDHAVGNVPELAPAVAYMAGFSGFHEFAEFTAEDVGTSESGLNSMALANNSETVLLPLNEPVYGTKRKSQIETYLEHNEGAGVQHLALVTHDIFTTLREMRKRSFLGGFEFMPSPPPTYYANLHNCAADVLTVDQIKQCEELGIMVDRDDQGTLLQIFTKPVGDRPTIFIEIIQRIGCMVEDEEGKVYQKGACGGFGKGNFGELFKSIEEYEKTLEAKRTAGLTVNS | 14 | 13 | 0.219 | 0.444 | 0.097 | 0.070 | 0.321 | 0.0224 |  |  |  |  |  |  |  |  | ON × OFF Fold vs wt (G. max HPPD; Mesotrione): 2.41; ON × OFF Fold vs wt (G. max HPPD; Tembotrione): 5.10; improvement of insensitivity vs native protein (G. max HPPD; mesotrione): 2.41 fold; improvement of insensitivity vs native protein (G. max HPPD; tembotrione): 5.10 fold
SEQ ID NO: 394 (protein, Sorghum bicolor) MPPTPTTAAATGAAVAAASAEQAAFRLVGHRNFVRVNPRSDRFHTLAFHHVELWCADAASAAGRFSFGLGAPLAARSDLSTGNTAHASLLLRSGALAFLFTAPYAHGADAATASLPSFSAAEARRFAADHGLAVRAVALRVADAEDAFRASVAAGARPAFEPVELGLGFRLAEVELYGDVVLRYVSYPDDADASFLPGFVGVTSPGAADYGLRRFDHIVGNVPELAPAAAYFAGFTGFHEFAEFTAEDVGTTESGLNSMVLANNAENVLLPLNEPVHGTKRRSQIQTYLDHHGGPGVQHMALASDDVLRTLREMQARSAMGGFEFMAPPAPEYYDGVRRRAGDVLTEAQIKECQELGVLVDRDDQGVLLQIFTKPVGDRPTLFLEIIQRIGCMEKDEKGQEYQKGGCGGFGKGNFSQLFKSIEDYEKSLEAKQAAAAQGS |  |  |  |  |  |  |  |  | 0.199 | 0.227 | 0.045 | 0.032 | 0.210 | 0.0067 | 4.9 | 246 | 
GE010083 (protein, HPPD variant) MPPTPTTAAATGAAVAAASAEQAAFRLVGHRNFVRVNPRSDRFHTLAFHHVELWCADAASAAGRFSFGLGAPLAARSDLSTGNTAHASLLLRSGALAFLFTAPYAHGADAATASLPSFSAAEARRFAADHGLAVRAVALRVADAEDAFRASVAAGARPAFEPVELGLGFRLAEVELYGDVVLRYVSYPDDADASFLPGFVGVTSPGAADYGLRRFDHIVGNVPELAPAAAYMAGFTGFHEFAEFTAEDVGTTESGLNSMALANNAENVLLPLNEPVHGTKRRSQIQTYLDHHGGPGVQHIALASDDVLRTLREMQARSAMGGFEFLPPPLSEYYDGVRRCAGDVLTEAQIKECQELGVMVDRDDQGVLLQIFTKPVGDRPTLFLEIIQRIGCMEKDEKGQEYQKGGCGGFGKGNFGQLFKSIEDYEKSLEAKQAAAAQGS |  |  |  |  |  |  |  |  | 0.436 | 0.634 | 0.277 | 0.071 | 0.730 | 0.0517 | 5.35 | 87 | ON × OFF Fold vs wt (S. bicolor HPPD [1]; Mesotrione): 6.13; ON × OFF Fold vs wt (S. bicolor HPPD [1]; Tembotrione): 7.71
